Experimental data taken from the supplement of paper PMC9112550, “Optimization of the antimicrobial peptide Bac7 by deep mutational scanning” (BMC Biology, 2022).

Test system: Escherichia coli TOP10
Experiment: shrunken log2 fold change of peptide-encoding DNA abundance (4.5 h post-induction vs induction); higher = less antimicrobial activity (less host growth inhibition)
Details: time post-induction: 4.5 h; library: site-saturation at positions 5, 18, 19, 20
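Note: peptides expressed intracellularly from a pBAD plasmid library in pooled LB shake-flask culture, induced with 0.3% L-arabinose, DNA abundance read by NGS, three biological replicates, DESeq2 with apeglm shrinkage.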

| Sequence | shrunken log2 fold change |
| --- | --- |
| RRIRHRPPRLPRPRPRPNHGPRP | 0.0424 |
| RRIRHRPPRLPRPRPRPNHQPRP | -1.24 |
| RRIRHRPPRLPRPRPRPNKFPRP | -0.284 |
| RRIRHRPPRLPRPRPRPNLFPRP | -0.0861 |
| RRIRHRPPRLPRPRPRPNPKPRP | -0.0127 |
| RRIRHRPPRLPRPRPRPNPRPRP | -0.0621 |
| RRIRHRPPRLPRPRPRPNQFPRP | -0.789 |
| RRIRHRPPRLPRPRPRPNQKPRP | -0.0319 |
| RRIRHRPPRLPRPRPRPNQWPRP | -0.227 |
| RRIRHRPPRLPRPRPRPNRPPRP | -0.022 |
| RRIRHRPPRLPRPRPRPNSAPRP | -0.0296 |
| RRIRHRPPRLPRPRPRPNTTPRP | -0.019 |
| RRIRHRPPRLPRPRPRPNVIPRP | 0.0378 |
| RRIRHRPPRLPRPRPRPNVQPRP | -1.87 |
| RRIRHRPPRLPRPRPRPNVWPRP | 0.0763 |
| RRIRHRPPRLPRPRPRPNWAPRP | -0.0735 |
| RRIRHRPPRLPRPRPRPPAYPRP | 0.181 |
| RRIRHRPPRLPRPRPRPPCQPRP | 0.0503 |
| RRIRHRPPRLPRPRPRPPEPPRP | 0.113 |
| RRIRHRPPRLPRPRPRPPEVPRP | 0.0634 |
| RRIRHRPPRLPRPRPRPPFSPRP | -0.166 |
| RRIRHRPPRLPRPRPRPPFTPRP | -0.176 |
| RRIRHRPPRLPRPRPRPPHGPRP | 0.389 |
| RRIRHRPPRLPRPRPRPPIIPRP | -0.183 |
| RRIRHRPPRLPRPRPRPPMTPRP | -0.175 |

| Sequence | shrunken log2 fold change |
| --- | --- |
| RRIRHRPPRLPRPRPRPPNHPRP | -0.442 |
| RRIRHRPPRLPRPRPRPPPKPRP | 0.906 |
| RRIRHRPPRLPRPRPRPPPQPRP | 0.844 |
| RRIRHRPPRLPRPRPRPPPSPRP | 0.87 |
| RRIRHRPPRLPRPRPRPPQTPRP | -0.00347 |
| RRIRHRPPRLPRPRPRPPRGPRP | 0.564 |
| RRIRHRPPRLPRPRPRPPRIPRP | 0.0175 |
| RRIRHRPPRLPRPRPRPPSLPRP | -0.0977 |
| RRIRHRPPRLPRPRPRPPSTPRP | -0.0909 |
| RRIRHRPPRLPRPRPRPPTDPRP | -0.254 |
| RRIRHRPPRLPRPRPRPPTIPRP | 0.215 |
| RRIRHRPPRLPRPRPRPPTRPRP | 0.429 |
| RRIRHRPPRLPRPRPRPPWIPRP | 0.0139 |
| RRIRHRPPRLPRPRPRPPWMPRP | 0.197 |
| RRIRHRPPRLPRPRPRPPWPPRP | 0.504 |
| RRIRHRPPRLPRPRPRPPYLPRP | -0.321 |
| RRIRHRPPRLPRPRPRPPYRPRP | -0.399 |
| RRIRHRPPRLPRPRPRPQAKPRP | -0.016 |
| RRIRHRPPRLPRPRPRPQANPRP | 0.0174 |
| RRIRHRPPRLPRPRPRPQCRPRP | -0.0351 |
| RRIRHRPPRLPRPRPRPQCWPRP | -0.112 |
| RRIRHRPPRLPRPRPRPQDMPRP | -0.129 |
| RRIRHRPPRLPRPRPRPQEPPRP | -0.136 |
| RRIRHRPPRLPRPRPRPQFEPRP | -0.0276 |
| RRIRHRPPRLPRPRPRPQFPPRP | -0.157 |

| Sequence | shrunken log2 fold change |
| --- | --- |
| RRIRHRPPRLPRPRPRPQGGPRP | -0.0982 |
| RRIRHRPPRLPRPRPRPQHMPRP | -1.2 |
| RRIRHRPPRLPRPRPRPQHYPRP | -0.483 |
| RRIRHRPPRLPRPRPRPQLSPRP | -0.000101 |
| RRIRHRPPRLPRPRPRPQQFPRP | -0.217 |
| RRIRHRPPRLPRPRPRPQSTPRP | -0.395 |
| RRIRHRPPRLPRPRPRPQTLPRP | -0.313 |
| RRIRHRPPRLPRPRPRPQVSPRP | -0.00697 |
| RRIRHRPPRLPRPRPRPQYEPRP | -0.0461 |
| RRIRHRPPRLPRPRPRPRAFPRP | -0.146 |
| RRIRHRPPRLPRPRPRPRAMPRP | 0.592 |
| RRIRHRPPRLPRPRPRPREFPRP | 0.0275 |
| RRIRHRPPRLPRPRPRPRFAPRP | 0.0665 |
| RRIRHRPPRLPRPRPRPRFLPRP | 0.0768 |
| RRIRHRPPRLPRPRPRPRFVPRP | -0.0283 |
| RRIRHRPPRLPRPRPRPRGIPRP | -0.0565 |
| RRIRHRPPRLPRPRPRPRILPRP | 0.091 |
| RRIRHRPPRLPRPRPRPRIRPRP | -0.00948 |
| RRIRHRPPRLPRPRPRPRKKPRP | -0.0239 |
| RRIRHRPPRLPRPRPRPRLNPRP | -0.249 |
| RRIRHRPPRLPRPRPRPRLSPRP | -0.0962 |
| RRIRHRPPRLPRPRPRPRMDPRP | 0.0986 |
| RRIRHRPPRLPRPRPRPRMFPRP | -0.219 |
| RRIRHRPPRLPRPRPRPRNAPRP | 0.184 |
| RRIRHRPPRLPRPRPRPRNCPRP | -0.112 |
